± gives the standard deviation.

Consider 72 sequences from the supplement of paper PMC10567573.

This data set is described as follows: protein stability index of a GFP-peptide fusion (GPS, HEK-293T) (PSI 1-6); higher = more stable.
Where [1] appears, read: treatment: DMSO, c terminus: a fixed tail appended.
Where [2] appears, read: treatment: MLN4924 1 uM, 8 h, c terminus: a fixed tail appended.
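Note: 24-mer peptide tiles fused after GFP, lentivirally expressed, FACS-sorted into six equal bins by GFP/DsRed ratio, decoded by Illumina sequencing, PSI is the read-weighted mean bin number.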

Regarding RVLDGKEAKAVGLISHVLEQNQEG [AUH], the protein stability index was determined as 4.53 ± 0.38 under setting [1] and 4.95 ± 0.088 under setting [2].

Regarding LAGLSVGRSSLTACSLPLCACLLG [PXN], the protein stability index turned out to be 2.33 ± 0.39 under setting [1] and 2.33 ± 0.22 under setting [2].

For MDSRTVFGAWRCLLDATVAGGQTR [FCHSD1], the protein stability index reads like this: under setting [1], 1.92 ± 0.4; under setting [2], 2.01 ± 0.33.

Take QVLDEVIPIHGKGNFPTMEVKPKD [TENT5D]: the protein stability index was 4.61 ± 0.18 under setting [1] and 4.6 ± 0.24 under setting [2].

For LSTAASLGPSGLQNHGQHLILSRE [LCOR], the protein stability index was 3.99 ± 0.38 under setting [1] and 3.96 ± 0.16 under setting [2].

In the case of VLRGRLYAIAGYDGNSLLSSIECY [KLHL12], the protein stability index runs as follows: under setting [1], 1.91 ± 0.14; under setting [2], 2.28 ± 0.13.

PDMETKLLFMTSRVRFGQQKRYQD [INTS3]: the protein stability index is 2.92 ± 0.24 under setting [1] and 3.09 ± 0.32 under setting [2].

GTNAWEEIATKPHEKIGFPAARRC [KLHDC10]: the protein stability index was determined as 3.96 ± 0.22 under setting [1] and 3.91 ± 0.37 under setting [2].

Consider PRTNEWTYVAKMSEPHYGHAGTVY [KLHL13], for which the protein stability index runs as follows: under setting [1], 2.44 ± 0.21; under setting [2], 2.61 ± 0.24.

Regarding IIDCGDIVWSLAFGSSVPEKQSRC [WSB1], the protein stability index is 2.12 ± 0.24 under setting [1] and 2.35 ± 0.28 under setting [2].

Turning to IYLSTSSSKFYDLFLMDLSEGELG [RHOBTB2], the protein stability index was 3.38 ± 0.65 under setting [1] and 2.9 ± 0.39 under setting [2].

In the case of PELTPEEEQATKQFLEEINKWTVQ [PTPN9], the protein stability index under setting [1] is 5.01 ± 0.23 and the protein stability index under setting [2] amounted to 4.86 ± 0.12.

For AEERRRQNLQEEKERKLECLPPEP [FAF2], the protein stability index came out at 5.71 ± 0.18 under setting [1] and 5.51 ± 0.42 under setting [2].

In the case of YICPDYQSYFKTIEDFQQKILLTK [KRT36], the protein stability index was found to be 2.33 ± 0.59 under setting [1] and 2.13 ± 0.28 under setting [2].

As for TPCGPAQACMGGRCLHMDQLQDFN [ADAMTS4], the protein stability index by setting is: under setting [1], 2.63 ± 0.25; under setting [2], 2.75 ± 0.17.

Take WALLCLGLLLPGGGAAWSIGAAPF [EMID1]: the protein stability index by setting is: under setting [1], 3.54 ± 0.26; under setting [2], 3.22 ± 0.19.

For the sequence RIASRAIDNAADLLIFGKELSAIG [SNX8], the protein stability index came to 2.34 ± 0.28 under setting [1] and 2.44 ± 0.38 under setting [2].

Turning to EKMTILQTYFRQNRDEVLDNLLAF [ATP6V1G1], the protein stability index was found to be 2.7 ± 0.46 under setting [1] and 2.632 ± 0.015 under setting [2].

As to FCLLSCGILTFLAVLGRYVPGLLL [RETREG3], the protein stability index turned out to be 2.36 ± 0.32 under setting [1] and 2.09 ± 0.23 under setting [2].

Take SPINMEDQERIKVERKRLRNRLAA [JUNB]: the protein stability index reads like this: under setting [1], 4.48 ± 0.55; under setting [2], 4.65 ± 0.087.

RLNAYRGYCSNQLAAKALLDQKKQ [NET1]: the protein stability index is 3.25 ± 0.25 under setting [1] and 3.25 ± 0.26 under setting [2].

Regarding MVFIAGILLNGVSGWIFFYVPSSE [P2RY14], the protein stability index is 2.94 ± 0.34 under setting [1] and 2.84 ± 0.51 under setting [2].

Take VYKDGEHGEEQRITIEPGTSYRLQ [PTPRD]: the protein stability index is, setting by setting: under setting [1], 4.81 ± 0.15; under setting [2], 5.03 ± 0.16.

For the sequence HCVTSDPATSPLVLAIPRRLRVEL [TRIM35], the protein stability index under setting [1] came to 2.3 ± 0.37 and the protein stability index under setting [2] turned out to be 2.13 ± 0.44.

Sequence GGKNCKKPAEYGYVSLGRLGAAKG [CEBPB] yielded a protein stability index under setting [1] of 3.64 ± 0.27 and a protein stability index under setting [2] of 3.52 ± 0.54.

On to ERVWALAQEKAADVQARLNRSDHG [FCHSD1], for which the protein stability index reads like this: under setting [1], 4.23 ± 0.13; under setting [2], 4.23 ± 0.24.

As for HTPGGQNQEILLPGGITSHQLLGL [TNXB], the protein stability index runs as follows: under setting [1], 3.33 ± 0.22; under setting [2], 3.47 ± 0.31.

ARRQWRDECLMRLAKLKSQVQPQ [CRYL1]: the protein stability index reads like this: (treatment: DMSO, c terminus: native) 2.9 ± 0.77; (treatment: MLN4924 1 uM, 8 h, c terminus: native) 3.33 ± 0.73.

As to LKRKGKTDSPWIKPARKRRRRSRK [EHMT1], the protein stability index is 5.1 ± 0.17 under setting [1] and 5.03 ± 0.23 under setting [2].

As to AKFWPRRRFNFFVLENNLEAVARH [DNAAF3], the protein stability index is, setting by setting: under setting [1], 2.13 ± 0.33; under setting [2], 2.09 ± 0.19.

On to IKIVLINSFGAILQGSLFGLAGLL [SLC29A1], for which the protein stability index is, setting by setting: under setting [1], 2.72 ± 0.32; under setting [2], 3.25 ± 0.2.

Consider PRRCHSAPPQGSCGDELPWTLQRR [PLEKHN1], for which the protein stability index came out at 4.79 ± 0.15 under setting [1] and 4.7 ± 0.23 under setting [2].

Turning to HCHKRRTRSCSSASSRSQQSSKRS [CLK3], the protein stability index was 5.19 ± 0.26 under setting [1] and 5.06 ± 0.063 under setting [2].

CIPASSSFVYGAVPIGASIYVIGD [GAN] returned a protein stability index under setting [1] of 2.97 ± 0.65 and a protein stability index under setting [2] of 2.48 ± 0.61.

Take GAAEEARRLEQRWGFGLEELYGLA [ACBD3]: the protein stability index runs as follows: under setting [1], 2.77 ± 0.37; under setting [2], 2.99 ± 0.12.

Regarding RLGQRQPPPSEPTQGPEIVPRGAG [DNAJC4], the protein stability index was found to be 4.83 ± 0.15 under setting [1] and 4.84 ± 0.12 under setting [2].

Take CSTTDHPYKKPYMETSPSEEDSFY [TBX5]: the protein stability index under setting [1] turned out to be 4.34 ± 0.13 and the protein stability index under setting [2] was 4.31 ± 0.2.

Consider SEGRRVSFGVDEEERVRVLQGVRL [CHCHD6], for which the protein stability index is, setting by setting: under setting [1], 4.38 ± 0.19; under setting [2], 4.38 ± 0.3.

Regarding QFHALQSKLEERFGPDSKSSALAC [NCF4], the protein stability index under setting [1] came to 3.5 ± 0.28 and the protein stability index under setting [2] stood at 3.6 ± 0.54.

Turning to EMETLETSTKTDSEEGSWAQTLAY [PPFIA4], the protein stability index by setting is: under setting [1], 5.04 ± 0.15; under setting [2], 4.62 ± 0.069.

The sequence PLWPGKSDVDQLYLIIRTLGKLIP [CDKL4] gave a protein stability index under setting [1] of 3.04 ± 0.39 and a protein stability index under setting [2] of 2.34 ± 0.61.

As for DEDFTFGAYQPTVVSSEGRQSRRQ [FBF1], the protein stability index is, setting by setting: under setting [1], 4.77 ± 0.24; under setting [2], 4.89 ± 0.3.

Take QSHDDLSNATATPSVRKKAGSFSR [C2CD2L]: the protein stability index under setting [1] worked out at 4.75 ± 0.31 and the protein stability index under setting [2] came to 4.67 ± 0.2.

Sequence EEFCEFVKSNTEQMREAFATAFSK [ZBED1] yielded a protein stability index under setting [1] of 3.76 ± 0.27 and a protein stability index under setting [2] of 3.98 ± 0.32.

SESSPSDFSVSLKASGKNKHFKVQ [NCK2]: the protein stability index under setting [1] worked out at 4.39 ± 0.18 and the protein stability index under setting [2] was 4.33 ± 0.17.

In turn, EELMLVHSLEYIDLMETTQYMNEG [HDAC6] had a protein stability index under setting [1] of 3.5 ± 0.2 and a protein stability index under setting [2] of 3.41 ± 0.3.

Turning to RVPSFESFEDDCSQSLCLNKPTMS [ETS2], the protein stability index came out at 4.6 ± 0.16 under setting [1] and 4.55 ± 0.16 under setting [2].

With STPRPPEASSSPPEGSQDRNTSWG [TLE6], the protein stability index is 5.32 ± 0.17 under setting [1] and 5.291 ± 0.047 under setting [2].

Take RPGATAVPTPLTNVQILLPVGEPV [FCHO1]: the protein stability index stood at 3.4 ± 0.26 under setting [1] and 3.33 ± 0.2 under setting [2].

Take AVPKRLLEIVGREGVSLTAVLTTH [HAGHL]: the protein stability index under setting [1] is 2.5 ± 0.39 and the protein stability index under setting [2] was 2.2 ± 0.6.

Take RRKEEEVQQQKLAEERRRQNLQEE [FAF2]: the protein stability index runs as follows: under setting [1], 5.56 ± 0.18; under setting [2], 5.45 ± 0.37.

Consider ELQSQLSMKASLEGNLAETENRYC [KRT17], for which the protein stability index runs as follows: under setting [1], 3.93 ± 0.25; under setting [2], 4.18 ± 0.14.

KKENKMTWAPKNKGGEERKAEGGE [IRX6] gave a protein stability index under setting [1] of 5.39 ± 0.2 and a protein stability index under setting [2] of 5.51 ± 0.27.

On to EGGLYFERRPVAQSTDGARGKRGY [SPSB2], for which the protein stability index turned out to be 4.55 ± 0.33 under setting [1] and 5.03 ± 0.11 under setting [2].

Turning to WEASSLGLVTAALHMVIVAAFTWA [KMT2E], the protein stability index was found to be 3.44 ± 0.31 under setting [1] and 3.16 ± 0.74 under setting [2].

For the sequence YARYSLKSIDPVLMAPTCVFLASK [CCNC], the protein stability index stood at 2.16 ± 0.65 under setting [1] and 2 ± 0.3 under setting [2].

As to SYSFQNPSSFDPSMLLQRFSVAPH [RNF180], the protein stability index is, setting by setting: under setting [1], 2.58 ± 0.28; under setting [2], 2.68 ± 0.23.

As for ILGKVILWILHLLLECYIQYHHSK [TMEM192], the protein stability index reads like this: under setting [1], 2.99 ± 0.51; under setting [2], 2.9 ± 0.31.

As for NKVKVLDAPVPDCLGVHCDFHQGL [FSD1], the protein stability index reads like this: under setting [1], 3.26 ± 0.078; under setting [2], 3.43 ± 0.24.

ITSSVFPSASLGKASSRKPFGILS [FBXO34] showed a protein stability index under setting [1] of 2.65 ± 0.12 and a protein stability index under setting [2] of 2.67 ± 0.21.

Take KILYDDGKMVEEVDGRATQKLIVN [PTPRD]: the protein stability index runs as follows: under setting [1], 3.92 ± 0.34; under setting [2], 3.605 ± 0.004.

MECPEGQLPISSENDSTPTVSTSE [TAF7L]: the protein stability index came out at 5.46 ± 0.12 under setting [1] and 5.59 ± 0.25 under setting [2].

LSPMTASSFLSFAELFSYVLQDRA [FEM1A]: the protein stability index is, setting by setting: under setting [1], 2.47 ± 0.39; under setting [2], 2.26 ± 0.13.

For LSLTSSASRLLTTALTSFCAKYTY [FANCE], the protein stability index by setting is: under setting [1], 2.72 ± 0.48; under setting [2], 2.81 ± 0.67.

On to PPSALDQLSRLNITYPMLFKLTNK [UFD1], for which the protein stability index was determined as 2.48 ± 0.27 under setting [1] and 2.96 ± 0.095 under setting [2].

Take RRSPRPDHPGTPPHKTFRKLRLFD [WEE1]: the protein stability index under setting [1] turned out to be 3.4 ± 0.078 and the protein stability index under setting [2] is 3.71 ± 0.34.

With CGRSEVRPVAPRRPRDAVGQRGAQ [SMAD6], the protein stability index reads like this: under setting [1], 4.37 ± 0.24; under setting [2], 4.57 ± 0.11.

Regarding QQKEEEEEMAVVPQGLFRGGKSGE [CHGA], the protein stability index by setting is: under setting [1], 5.52 ± 0.28; under setting [2], 5.63 ± 0.12.

For the sequence IEVQPNFEVPYYNRGLILYRLGYF [TTC32], the protein stability index worked out at 3.17 ± 0.4 under setting [1] and 2.73 ± 0.38 under setting [2].

As for IPAFCELPLDDQVALLRAHAGEHL [HNF4A], the protein stability index runs as follows: under setting [1], 2.88 ± 0.26; under setting [2], 3.22 ± 0.33.

The sequence AVGSGERRGGGPVFPAPVVGSGGA [ZBTB22] came in with a protein stability index under setting [1] of 4.39 ± 0.19 and a protein stability index under setting [2] of 4.45 ± 0.38.

Take VFNAARDGKLRLLTKLLASKSKEE [FEM1C]: the protein stability index runs as follows: under setting [1], 2.48 ± 0.21; under setting [2], 2.75 ± 0.3.
